Results taken from patent US20200407442A1.
Positions count from the first letter of the chain named. Like-named read-outs stand apart in the source and are kept apart here.

B1: BMK7 (antibody, INN chains, looked up, V domains shown)
VH: QVQLVESGGGVVQPGRSLRLSCVASGFTFSSYGMHWVRQAPGKGLEWVAIIWYDGSNKYYADSVKGRFTISRDNSKNTQYLQMNSLRAEDTAVYYCASVATSGDFDYYGMDVWGQGTTVTVSS
VL: EIVLTQSPATLSLSPGERTTLSCRASQRISTYLAWYQQKPGQAPRLLIYDASKRATGIPARFSGSGSGTGFTLTISSLEPEDFAVYYCQQRSNWPLTFGGGTKVEIK
B2: 1.53.3-uAb-IgG4k (antibody, V domains shown)
VH: QVQLQQWGAGLLKPSETLSLTCGVYGGSFSGYYWSWIRQPPGMGLEWIGEINHRGNTNYNPSLKSRVTISEDTSKNQFSLRLSSVTAADTAVYFCTRGEDYSDYDYYGDFWGQGTLVTVSS
VL: B1 VL with P15Q, T19A, R28S, T31S, D50A, K53N, G70D, V85I
B3: 3.40.19-uAb-IgG4L (antibody, V domains shown)
VH: QLQLQESGPGLVKPSETLSLTCTVSGDSISSTSYYWGWIRQPPGKGLEWIGSFYYSGSTYYNPSLKSRVTISVDTSKNQFSLKLNSVTAADTAVYYCARMQLWSYDVDVWGQGTTVTVSS
VL: QSALTQPASVSGSPGQSITISCTGTSSDVGGYDYVAWYQQHPGKVPKLMIYDVSERPSGVSNRFSGSKSGNTASLTISGLQAEDEADYYCSSYTSTTTLVVFGGGTKLSVL

What was measured:
[1] = molecular target: human LAG-3 protein (SPR analyte) (human) (UniProt P18627); experiment: SPR Biacore 8K, antibody captured by anti-human Fc, LAG-3 as analyte
[2] = molecular target: full-length human LAG-3 on cells (human) (UniProt P18627); experiment: FACS on human LAG-3 transfectant cells
[3] = molecular target: full-length human LAG-3 on cells (human) (UniProt P18627); experiment: FACS affinity on Flp-In-293 cells expressing human LAG-3
[4] = molecular target: mFc-tagged LAG-3 protein (human) (UniProt P18627); experiment: ELISA competition: blocks mFc-tagged LAG-3 binding to coated Galectin-3
[5] = molecular target: mFc-tagged LAG-3 protein (human) (UniProt P18627); experiment: ELISA competition: blocks mFc-tagged LAG-3 binding to coated LSECtin
[6] = molecular target: mFc-tagged LAG-3 protein (human) (UniProt P18627); experiment: FACS competition: blocks mFc-tagged LAG-3 binding to MHC-II on Raji cells
[7] = molecular target: full-length human LAG-3 on cells (human) (UniProt P18627); experiment: cell-based or functional assay
[8] = molecular target: full-length cynomolgus LAG-3 on cells (cynomolgus); experiment: FACS on cynomolgus LAG-3-expressing 293F cells (target not labelled in the table)
Target sequence in this assay (P18627 other isoform, or with tags, fused parts or gaps limits assumed, form in doubt): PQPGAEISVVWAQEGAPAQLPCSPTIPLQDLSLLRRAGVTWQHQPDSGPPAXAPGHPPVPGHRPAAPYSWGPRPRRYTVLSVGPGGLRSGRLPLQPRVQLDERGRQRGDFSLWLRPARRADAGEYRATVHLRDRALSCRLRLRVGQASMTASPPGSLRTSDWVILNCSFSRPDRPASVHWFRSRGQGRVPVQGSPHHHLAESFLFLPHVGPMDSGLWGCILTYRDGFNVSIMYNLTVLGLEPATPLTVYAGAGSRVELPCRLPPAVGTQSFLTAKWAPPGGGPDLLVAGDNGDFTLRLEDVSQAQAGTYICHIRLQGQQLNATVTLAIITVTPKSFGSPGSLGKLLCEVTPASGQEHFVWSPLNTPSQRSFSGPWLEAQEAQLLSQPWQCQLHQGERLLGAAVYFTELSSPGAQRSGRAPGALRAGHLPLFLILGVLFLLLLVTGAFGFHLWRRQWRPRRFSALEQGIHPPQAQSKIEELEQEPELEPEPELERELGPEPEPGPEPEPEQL

[9] = molecular target: full-length cynomolgus LAG-3 on cells (cynomolgus); experiment: as above; remark: listed apart in the source
Target sequence in this assay (P18627 other isoform, or with tags, fused parts or gaps limits assumed, form in doubt): as above

Chain of full-length human LAG-3 on cells (human) (P18627 23-525 limits assumed): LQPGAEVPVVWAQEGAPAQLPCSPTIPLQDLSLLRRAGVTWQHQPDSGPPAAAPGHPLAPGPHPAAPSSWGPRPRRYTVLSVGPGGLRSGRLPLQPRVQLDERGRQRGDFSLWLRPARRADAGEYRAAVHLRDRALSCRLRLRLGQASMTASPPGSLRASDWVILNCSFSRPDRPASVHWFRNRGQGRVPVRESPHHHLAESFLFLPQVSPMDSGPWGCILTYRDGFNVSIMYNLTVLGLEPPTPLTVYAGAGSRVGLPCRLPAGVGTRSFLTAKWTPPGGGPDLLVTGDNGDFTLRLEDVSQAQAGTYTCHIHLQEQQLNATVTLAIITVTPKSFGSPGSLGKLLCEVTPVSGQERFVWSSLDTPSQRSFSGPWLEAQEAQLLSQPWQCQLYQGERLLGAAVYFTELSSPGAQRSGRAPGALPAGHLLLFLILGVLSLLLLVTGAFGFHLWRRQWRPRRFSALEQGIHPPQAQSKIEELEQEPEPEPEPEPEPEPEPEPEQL
Chain of mFc-tagged LAG-3 protein (human) (P18627 30-450): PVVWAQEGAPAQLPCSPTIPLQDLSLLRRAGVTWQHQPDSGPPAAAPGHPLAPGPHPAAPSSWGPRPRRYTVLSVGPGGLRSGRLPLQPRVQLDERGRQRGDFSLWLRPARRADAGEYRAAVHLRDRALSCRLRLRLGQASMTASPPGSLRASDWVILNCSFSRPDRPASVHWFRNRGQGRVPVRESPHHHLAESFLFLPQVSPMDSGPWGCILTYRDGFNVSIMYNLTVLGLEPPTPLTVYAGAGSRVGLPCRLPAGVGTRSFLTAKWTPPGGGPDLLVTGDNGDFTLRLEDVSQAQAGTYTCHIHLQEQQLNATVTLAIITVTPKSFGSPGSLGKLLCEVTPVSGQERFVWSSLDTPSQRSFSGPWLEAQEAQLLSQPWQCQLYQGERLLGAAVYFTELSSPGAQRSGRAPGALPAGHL
Chain of human LAG-3 protein (SPR analyte) (human) (P18627 30-450 limits assumed): as the sequence (P18627 30-450) above

Binder	Kd [1] [nM]	koff [1] [s⁻¹]	kon [1] [M⁻¹ s⁻¹]	EC50 [2] [nM]	Kd [3] [nM]	EC50 [4] [nM]	EC50 [5] [nM]	EC50 [6] [nM]	EC50, IL-2 luciferase reporter gene assay (Jurkat cells expressing human LAG-3 with Raji cells and SEE) [7] [nM]	EC50 [8] [nM]	EC50 [9] [nM]
B1	0.497	0.000106	213000	0.61	0.58	0.79	0.59	1.25	2.65	2.65	–
B2	–	–	–	–	–	–	–	–	–	–	4.01
B3	–	–	–	–	–	–	–	–	–	–	3.92
